Values quoted from earlier work, collected in paper PMC2742733.

Molecular target: TEM-8 (Homo sapiens) (UniProt Q9H6X2)

For “Protective antigen (PA) (from UniProt P13423)”, which Kd is on record?
The Kd was 130 nM.
